Measured values taken from the RNAGym collection of RNA variant scans (doi:10.7554/elife.90254).

B1: LINE1-mini (parent)
chain: GGCAGAGCUCAACACAGCGUGGCAAAGUGGCUGUGGCUAGACUGCC

Variants of: B1
Experiment: self-cleavage, relative activity (ratio to wild type); higher = more cleavage; in vitro, sequencing; the parent is a self-cleaving ribozyme

Going from G33A C37G to U32A U38G, the self-cleavage falls from 0.04 to 0.02.

Compared with C15A A26C, A26G A41C is higher in self-cleavage: 0.08 for the first, 0.12 for the second.

Compared with C18A G33A, A39U G44A is higher in self-cleavage: 0.03 for the first, 0.18 for the second.

Compared with A16G G36A, G17A C46A is lower in self-cleavage: 0.53 for the first, 0.14 for the second.

First: G17A C46U
Second: A4G A39G
The self-cleavage of the first is lower: 0.15 for the first, 0.22 for the second.

Going from G7C G27A to C10G A11C, the self-cleavage falls from 0.09 to 0.02.

First: G5A G19U
Second: G5C G35U
The self-cleavage of the first is higher: 0.11 for the first, 0.07 for the second.

Compared with G27C G44A, A6U G33C is lower in self-cleavage: 0.47 for the first, 0.43 for the second.

Going from G7U U32G to A4U C37A, the self-cleavage rises from 0.11 to 0.16.

Going from G5C C37A to G1C G33A, the self-cleavage falls from 0.05 to 0.03.

First: G2A G22A
Second: A14C G33A
The self-cleavage of the first is higher: 0.8 for the first, 0.06 for the second.

Going from U28A G36U to C13G G30U, the self-cleavage rises from 0.08 to 0.19.

Compared with A11C G22A, U38G A39U is higher in self-cleavage: 0.12 for the first, 0.13 for the second.

Going from G1A A26U to A4G G5C, the self-cleavage falls from 0.53 to 0.07.

Compared with C31A U32G, A24G G33U is higher in self-cleavage: 0.05 for the first, 0.08 for the second.

First: A4G G36A
Second: G2C C45G
The self-cleavage of the first is lower: 0.54 for the first, 0.61 for the second.

Going from C8G C37U to G2C G40U, the self-cleavage rises from 0.05 to 0.13.

Going from C10G U20A to A12C U20A, the self-cleavage falls from 0.06 to 0.03.

Compared with C10G G27U, C8G C31G is lower in self-cleavage: 0.08 for the first, 0.05 for the second.

First: G17A G40U
Second: G17A G40C
The self-cleavage of the first is lower: 0.07 for the first, 0.09 for the second.

U28C U43C and C3U C45G are the same in self-cleavage: 0.12 for the first, 0.12 for the second.

Going from G7C G30A to G27C A39G, the self-cleavage falls from 0.13 to 0.06.

Going from A4G C10G to C3A A25C, the self-cleavage rises from 0.05 to 0.41.

First: C10G G44C
Second: U9A C37U
The self-cleavage of the first is lower: 0.06 for the first, 0.12 for the second.

A14U G17U and G35U C46U are the same in self-cleavage: 0.1 for the first, 0.1 for the second.

Going from U34A C42G to G29C U32G, the self-cleavage rises from 0.04 to 0.2.

Compared with C3A A16C, G2A U43G is higher in self-cleavage: 0.12 for the first, 0.14 for the second.

First: A12C G33C
Second: A26U C42A
The self-cleavage of the first is lower: 0.01 for the first, 0.29 for the second.

Compared with G19C U28A, G30C C45G is lower in self-cleavage: 1.2 for the first, 0.21 for the second.

G21A G33C and G19A U32C are the same in self-cleavage: 0.12 for the first, 0.12 for the second.

Going from G21A A25U to A11U C15G, the self-cleavage falls from 1.75 to 0.02.

Going from G36A U38A to G7C A26U, the self-cleavage rises from 0.08 to 0.15.

Compared with C8G G21A, A26G G35A is lower in self-cleavage: 0.32 for the first, 0.1 for the second.

First: C23A C31G
Second: G1A G35A
The self-cleavage of the first is lower: 0.08 for the first, 0.2 for the second.

Going from A11G G29C to G1A G7C, the self-cleavage rises from 0.3 to 0.6.

Going from U32G G44A to C3G C45A, the self-cleavage rises from 0.08 to 0.45.

First: A4C U38G
Second: U20A A25C
The self-cleavage of the first is lower: 0.04 for the first, 0.61 for the second.

First: C10U C46U
Second: A12G A24G
The self-cleavage of the first is higher: 0.21 for the first, 0.03 for the second.

Compared with A12G A24C, G29C G30A is higher in self-cleavage: 0.02 for the first, 1.73 for the second.

First: G30U G40U
Second: G40A C45A
The self-cleavage of the first is higher: 0.13 for the first, 0.12 for the second.

First: A4C G19A
Second: A16U C45G
The self-cleavage of the first is higher: 0.28 for the first, 0.13 for the second.

For A16U C45A, the self-cleavage was 0.1.
